Laboratory results taken from patent US20220229068A1, “DETECTION OF PROTEIN TO PROTEIN INTERACTIONS” (THE GOVERNING COUNCIL OF THE UNIVERSITY OF TORONTO, priority 2019, published 2022).

Assays:
Experiment in all cases: SIMPL ELISA, bait-IN/prey-CIC
[1] = molecular target: T1, MAD1L1 (prey, CIC format) (human) (UniProt Q9Y6D9)
T1 sequence (looked up): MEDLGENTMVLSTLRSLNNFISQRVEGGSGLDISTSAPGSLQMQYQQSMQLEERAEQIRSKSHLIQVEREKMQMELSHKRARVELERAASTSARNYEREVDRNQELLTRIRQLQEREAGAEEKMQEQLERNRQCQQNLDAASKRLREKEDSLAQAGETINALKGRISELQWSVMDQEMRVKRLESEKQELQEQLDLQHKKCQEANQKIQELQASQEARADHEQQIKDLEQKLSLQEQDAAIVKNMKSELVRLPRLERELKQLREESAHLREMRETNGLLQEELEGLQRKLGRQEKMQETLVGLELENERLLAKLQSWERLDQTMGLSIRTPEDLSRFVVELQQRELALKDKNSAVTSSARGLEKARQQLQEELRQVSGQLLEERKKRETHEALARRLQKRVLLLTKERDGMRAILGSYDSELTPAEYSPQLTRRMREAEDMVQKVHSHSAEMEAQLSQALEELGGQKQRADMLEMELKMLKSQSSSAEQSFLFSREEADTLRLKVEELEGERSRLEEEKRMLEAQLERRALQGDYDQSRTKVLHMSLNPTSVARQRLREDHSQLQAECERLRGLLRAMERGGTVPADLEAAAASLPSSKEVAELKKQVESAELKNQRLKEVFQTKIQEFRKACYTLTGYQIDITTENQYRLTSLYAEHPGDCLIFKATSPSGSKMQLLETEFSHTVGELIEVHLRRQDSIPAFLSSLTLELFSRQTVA

[2] = molecular target: T2, MCM5 (prey, CIC format) (human) (UniProt P33992)
T2 sequence (looked up): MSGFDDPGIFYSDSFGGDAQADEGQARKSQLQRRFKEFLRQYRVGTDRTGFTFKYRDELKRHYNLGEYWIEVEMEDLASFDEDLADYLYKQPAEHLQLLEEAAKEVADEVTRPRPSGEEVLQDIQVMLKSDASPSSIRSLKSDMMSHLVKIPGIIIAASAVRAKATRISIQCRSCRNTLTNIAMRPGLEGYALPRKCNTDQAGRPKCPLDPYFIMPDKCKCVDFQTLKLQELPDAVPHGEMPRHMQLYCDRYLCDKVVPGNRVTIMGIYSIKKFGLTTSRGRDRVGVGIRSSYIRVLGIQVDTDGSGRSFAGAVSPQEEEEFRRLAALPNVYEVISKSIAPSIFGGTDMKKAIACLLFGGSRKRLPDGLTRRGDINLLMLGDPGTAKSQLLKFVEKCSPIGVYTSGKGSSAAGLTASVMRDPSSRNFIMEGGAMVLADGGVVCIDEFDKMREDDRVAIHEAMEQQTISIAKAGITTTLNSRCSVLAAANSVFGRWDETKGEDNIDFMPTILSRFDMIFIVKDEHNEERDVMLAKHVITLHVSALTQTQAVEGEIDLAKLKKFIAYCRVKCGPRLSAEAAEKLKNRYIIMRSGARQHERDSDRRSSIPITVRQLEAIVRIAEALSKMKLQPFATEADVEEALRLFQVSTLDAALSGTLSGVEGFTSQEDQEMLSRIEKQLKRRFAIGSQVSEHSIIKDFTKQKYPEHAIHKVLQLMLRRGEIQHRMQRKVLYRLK

[3] = molecular target: T3, NTF4 (prey, CIC format) (human) (UniProt P34130)
T3 sequence (looked up): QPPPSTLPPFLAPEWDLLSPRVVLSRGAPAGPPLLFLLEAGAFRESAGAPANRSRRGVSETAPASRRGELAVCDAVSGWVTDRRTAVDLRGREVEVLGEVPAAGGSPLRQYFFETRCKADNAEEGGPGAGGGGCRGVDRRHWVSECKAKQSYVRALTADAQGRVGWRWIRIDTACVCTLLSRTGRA

[4] = molecular target: RELA (prey, CIC format) (human) (UniProt Q04206)
Chain of RELA (prey, CIC format) (human) (Q04206 whole entry): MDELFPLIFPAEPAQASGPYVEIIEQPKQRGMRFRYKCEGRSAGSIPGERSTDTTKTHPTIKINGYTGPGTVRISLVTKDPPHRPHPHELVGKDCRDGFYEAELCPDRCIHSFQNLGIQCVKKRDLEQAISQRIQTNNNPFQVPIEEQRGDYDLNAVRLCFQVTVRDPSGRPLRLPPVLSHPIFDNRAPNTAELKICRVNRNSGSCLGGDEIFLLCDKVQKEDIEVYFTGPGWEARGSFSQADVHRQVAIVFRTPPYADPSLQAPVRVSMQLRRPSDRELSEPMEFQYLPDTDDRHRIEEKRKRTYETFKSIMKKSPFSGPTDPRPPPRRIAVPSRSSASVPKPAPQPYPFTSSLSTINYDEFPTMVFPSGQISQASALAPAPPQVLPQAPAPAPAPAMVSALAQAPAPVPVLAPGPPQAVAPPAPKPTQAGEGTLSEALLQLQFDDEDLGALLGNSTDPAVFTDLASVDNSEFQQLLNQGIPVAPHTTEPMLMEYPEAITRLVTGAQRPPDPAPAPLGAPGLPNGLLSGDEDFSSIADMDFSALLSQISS

[5] = molecular target: EIF3E (prey, CIC format) (human) (UniProt P60228)
Chain of EIF3E (prey, CIC format) (human) (P60228 whole entry): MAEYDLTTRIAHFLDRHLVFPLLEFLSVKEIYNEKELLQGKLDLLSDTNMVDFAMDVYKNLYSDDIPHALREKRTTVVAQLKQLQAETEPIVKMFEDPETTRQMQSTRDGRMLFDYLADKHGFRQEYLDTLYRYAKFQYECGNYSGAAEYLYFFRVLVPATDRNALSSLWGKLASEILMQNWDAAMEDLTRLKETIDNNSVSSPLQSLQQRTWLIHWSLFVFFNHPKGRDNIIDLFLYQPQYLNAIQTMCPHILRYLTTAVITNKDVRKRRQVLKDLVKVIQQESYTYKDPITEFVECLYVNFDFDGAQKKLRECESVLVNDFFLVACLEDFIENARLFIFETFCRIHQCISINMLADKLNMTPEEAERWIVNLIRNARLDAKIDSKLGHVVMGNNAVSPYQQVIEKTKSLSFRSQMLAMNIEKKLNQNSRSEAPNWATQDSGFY

[6] = molecular target: T4, FRS2 (prey, CIC format) (human) (UniProt Q8WU20)
T4 sequence (looked up): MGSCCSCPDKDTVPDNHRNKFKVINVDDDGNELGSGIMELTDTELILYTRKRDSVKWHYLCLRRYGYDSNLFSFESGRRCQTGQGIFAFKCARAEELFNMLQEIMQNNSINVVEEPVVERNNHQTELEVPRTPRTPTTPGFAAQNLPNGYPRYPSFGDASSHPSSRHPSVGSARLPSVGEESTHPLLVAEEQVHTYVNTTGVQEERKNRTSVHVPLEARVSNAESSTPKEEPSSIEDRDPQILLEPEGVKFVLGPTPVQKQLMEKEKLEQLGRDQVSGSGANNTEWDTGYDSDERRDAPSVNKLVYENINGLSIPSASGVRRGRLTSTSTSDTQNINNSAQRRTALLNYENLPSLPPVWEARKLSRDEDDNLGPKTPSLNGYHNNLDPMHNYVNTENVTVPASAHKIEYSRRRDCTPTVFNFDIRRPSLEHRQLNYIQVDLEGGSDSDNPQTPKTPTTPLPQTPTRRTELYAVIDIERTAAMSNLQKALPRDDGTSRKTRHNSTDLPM

[7] = molecular target: HBB (prey, CIC format) (human) (UniProt P68871)
Chain of HBB (prey, CIC format) (human) (P68871 whole entry): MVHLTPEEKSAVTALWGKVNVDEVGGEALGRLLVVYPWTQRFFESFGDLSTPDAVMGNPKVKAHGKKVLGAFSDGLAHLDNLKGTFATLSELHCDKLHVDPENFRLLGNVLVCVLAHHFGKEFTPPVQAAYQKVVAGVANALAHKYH

[8] = molecular target: T5, MCM10 (prey, CIC format) (human) (UniProt Q7L590)
T5 sequence (looked up): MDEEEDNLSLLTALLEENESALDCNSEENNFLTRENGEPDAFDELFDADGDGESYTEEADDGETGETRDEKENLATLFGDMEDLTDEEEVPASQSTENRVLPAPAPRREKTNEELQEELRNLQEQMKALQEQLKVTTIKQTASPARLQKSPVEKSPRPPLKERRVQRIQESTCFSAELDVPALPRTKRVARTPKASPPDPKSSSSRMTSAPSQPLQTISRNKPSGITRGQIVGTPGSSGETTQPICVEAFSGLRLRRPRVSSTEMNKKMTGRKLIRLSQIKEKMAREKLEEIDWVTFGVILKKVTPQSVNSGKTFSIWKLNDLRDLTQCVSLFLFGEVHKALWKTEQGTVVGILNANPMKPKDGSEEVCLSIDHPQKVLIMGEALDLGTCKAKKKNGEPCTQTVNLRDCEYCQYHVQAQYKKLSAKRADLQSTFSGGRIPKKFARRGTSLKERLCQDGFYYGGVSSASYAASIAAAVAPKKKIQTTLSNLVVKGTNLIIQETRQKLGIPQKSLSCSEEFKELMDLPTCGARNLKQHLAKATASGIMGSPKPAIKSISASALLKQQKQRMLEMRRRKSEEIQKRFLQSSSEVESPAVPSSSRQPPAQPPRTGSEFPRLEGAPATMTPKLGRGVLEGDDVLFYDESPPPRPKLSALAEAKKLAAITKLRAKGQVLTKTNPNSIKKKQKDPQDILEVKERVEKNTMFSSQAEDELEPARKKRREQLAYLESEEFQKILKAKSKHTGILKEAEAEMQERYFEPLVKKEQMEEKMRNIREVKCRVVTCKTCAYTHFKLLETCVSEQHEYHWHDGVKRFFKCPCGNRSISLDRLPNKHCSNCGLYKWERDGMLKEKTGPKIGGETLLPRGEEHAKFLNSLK

[9] = molecular target: T6, ORC4 (prey, CIC format) (human) (UniProt O43929)
T6 sequence (looked up): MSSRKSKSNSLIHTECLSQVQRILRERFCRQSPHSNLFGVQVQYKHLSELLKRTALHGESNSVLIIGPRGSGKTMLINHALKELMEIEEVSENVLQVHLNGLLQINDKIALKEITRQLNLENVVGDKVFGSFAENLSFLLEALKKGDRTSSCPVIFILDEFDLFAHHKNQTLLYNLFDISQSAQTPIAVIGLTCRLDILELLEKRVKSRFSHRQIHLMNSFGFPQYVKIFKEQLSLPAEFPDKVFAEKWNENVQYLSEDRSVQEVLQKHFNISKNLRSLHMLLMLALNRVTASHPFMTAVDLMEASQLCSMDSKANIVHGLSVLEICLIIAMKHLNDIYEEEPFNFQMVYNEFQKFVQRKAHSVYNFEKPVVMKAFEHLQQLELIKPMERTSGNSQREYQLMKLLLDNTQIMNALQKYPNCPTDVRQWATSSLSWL

[10] = molecular target: UBE2I (prey, CIC format) (human) (UniProt P63279)
Chain of UBE2I (prey, CIC format) (human) (P63279 whole entry): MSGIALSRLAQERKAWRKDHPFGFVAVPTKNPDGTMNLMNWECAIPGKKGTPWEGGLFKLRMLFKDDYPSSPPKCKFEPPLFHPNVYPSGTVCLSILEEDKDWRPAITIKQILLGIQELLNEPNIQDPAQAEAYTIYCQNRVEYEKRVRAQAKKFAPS

B1: BDNF (bait, IN format) (ligand, human, UniProt P23560 19-247, looked up)
chain: APMKEANIRGQGGLAYPGVRTHGTLESVNGPKAGSRGLTSLADTFEHVIEELLDEDQKVRPNEENNKDADLYTSRVMLSSQVPLEPPLLFLLEEYKNYLDAANMSMRVRRHSDPARRGELSVCDSISEWVTAADKKTAVDMSGGTVTVLEKVPVSKGQLKQYFYETKCNPMGYTKEGCRGIDKRHWNSQCRTTQSYVRALTMDSKKRIGWRFIRIDTSCVCTLTIKRGR
Question: How did the PLU mean [1] turn out when B1 was run?
Answer: 0.19

Question: And the PLU mean [2]?
Answer: 0.22

Question: And the PLU mean [3]?
Answer: 0.629

B2: IFIT1 (bait, IN format) (protein, human, UniProt P09914 1-478, looked up)
chain: MSTNGDDHQVKDSLEQLRCHFTWELSIDDDEMPDLENRVLDQIEFLDTKYSVGIHNLLAYVKHLKGQNEEALKSLKEAENLMQEEHDNQANVRSLVTWGNFAWMYYHMGRLAEAQTYLDKVENICKKLSNPFRYRMECPEIDCEEGWALLKCGGKNYERAKACFEKVLEVDPENPESSAGYAISAYRLDGFKLATKNHKPFSLLPLRQAVRLNPDNGYIKVLLALKLQDEGQEAEGEKYIEEALANMSSQTYVFRYAAKFYRRKGSVDKALELLKKALQETPTSVLLHHQIGLCYKAQMIQIKEATKGQPRGQNREKLDKMIRSAIFHFESAVEKKPTFEVAHLDLARMYIEAGNHRKAEENFQKLLCMKPVVEETMQDIHFHYGRFQEFQKKSDVNAIIHYLKAIKIEQASLTRDKSINSLKKLVLRKLRRKALDLESLSLLGFVYKLEGNMNEALEYYERALRLAADFENSVRQGP
Question: B2 was tested. Which PLU mean [4] did it give?
Answer: 0.328

Question: And the PLU mean [5]?
Answer: 0.676

B3: PTPN11 (bait, IN format) (enzyme, human, UniProt Q06124 1-593, looked up)
chain: MTSRRWFHPNITGVEAENLLLTRGVDGSFLARPSKSNPGDFTLSVRRNGAVTHIKIQNTGDYYDLYGGEKFATLAELVQYYMEHHGQLKEKNGDVIELKYPLNCADPTSERWFHGHLSGKEAEKLLTEKGKHGSFLVRESQSHPGDFVLSVRTGDDKGESNDGKSKVTHVMIRCQELKYDVGGGERFDSLTDLVEHYKKNPMVETLGTVLQLKQPLNTTRINAAEIESRVRELSKLAETTDKVKQGFWEEFETLQQQECKLLYSRKEGQRQENKNKNRYKNILPFDHTRVVLHDGDPNEPVSDYINANIIMPEFETKCNNSKPKKSYIATQGCLQNTVNDFWRMVFQENSRVIVMTTKEVERGKSKCVKYWPDEYALKEYGVMRVRNVKESAAHDYTLRELKLSKVGQGNTERTVWQYHFRTWPDHGVPSDPGGVLDFLEEVHHKQESIMDAGPVVVHCSAGIGRTGTFIVIDILIDIIREKGVDCDIDVPKTIQMVRSQRSGMVQTEAQYRFIYMAVQHYIETLQRRIEEEQKSKRKGHEYTNIKYSLADQTSGDQSPLPPCTPTPPCAEMREDSARVYENVGLMQQQKSFR
Question: For B3, which PLU mean [6] is on record?
Answer: 0.474

B4: ORC2 (bait, IN format) (protein, human, UniProt Q13416 1-577, looked up)
chain: MSKPELKEDKMLEVHFVGDDDVLNHILDREGGAKLKKERAQLLVNPKKIIKKPEYDLEEDDQEVLKDQNYVEIMGRDVQESLKNGSATGGGNKVYSFQNRKHSEKMAKLASELAKTPQKSVSFSLKNDPEITINVPQSSKGHSASDKVQPKNNDKSEFLSTAPRSLRKRLIVPRSHSDSESEYSASNSEDDEGVAQEHEEDTNAVIFSQKIQAQNRVVSAPVGKETPSKRMKRDKTSDLVEEYFEAHSSSKVLTSDRTLQKLKRAKLDQQTLRNLLSKVSPSFSAELKQLNQQYEKLFHKWMLQLHLGFNIVLYGLGSKRDLLERFRTTMLQDSIHVVINGFFPGISVKSVLNSITEEVLDHMGTFRSILDQLDWIVNKFKEDSSLELFLLIHNLDSQMLRGEKSQQIIGQLSSLHNIYLIASIDHLNAPLMWDHAKQSLFNWLWYETTTYSPYTEETSYENSLLVKQSGSLPLSSLTHVLRSLTPNARGIFRLLIKYQLDNQDNPSYIGLSFQDFYQQCREAFLVNSDLTLRAQLTEFRDHKLIRTKKGTDGVEYLLIPVDNGTLTDFLEKEEEEA
Question: B4 was tested. Which PLU mean [7] did it give?
Answer: 0.227

Question: And the PLU mean [8]?
Answer: 0.43

Question: And the PLU mean [9]?
Answer: 0.297

Question: And the PLU mean [10]?
Answer: 0.119
